Test results as given in patent US20250289903A1 (PURINNOMIA BIOTECH, published 2025).

T1: human CD39 (ectonucleoside triphosphate diphosphohydrolase-1) (human, UniProt P49961 1-510)
T1 construct: whole, on cells; also called hCD39; ENTPD1
T1 sequence (looked up): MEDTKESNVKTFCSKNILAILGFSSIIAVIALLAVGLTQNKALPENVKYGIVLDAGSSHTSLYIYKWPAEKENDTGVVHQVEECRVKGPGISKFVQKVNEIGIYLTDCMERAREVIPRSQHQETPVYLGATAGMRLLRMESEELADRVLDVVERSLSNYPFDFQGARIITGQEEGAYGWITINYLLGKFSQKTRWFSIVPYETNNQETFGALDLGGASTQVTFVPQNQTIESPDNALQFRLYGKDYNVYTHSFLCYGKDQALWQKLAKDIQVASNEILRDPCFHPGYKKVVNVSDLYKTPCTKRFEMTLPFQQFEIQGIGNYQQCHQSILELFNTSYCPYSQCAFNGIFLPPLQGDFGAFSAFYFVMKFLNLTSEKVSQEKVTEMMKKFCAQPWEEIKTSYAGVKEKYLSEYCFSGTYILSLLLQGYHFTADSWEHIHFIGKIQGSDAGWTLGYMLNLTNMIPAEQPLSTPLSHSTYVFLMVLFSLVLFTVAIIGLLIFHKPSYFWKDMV

B1: PEO20, Human/Rabbit chimeric anti-human CD39 monoclonal antibody (antibody, V domains shown)
VH: QSVEESGGRLVTPGTPLTLTCTVSGFSLSSYAISWVRQAPGKGLEYIAIINSYGTTYYASWAKGRVTISKTSSTVDLKISSPTTEDTATYFCARGDSYGSGVGLGLWGPGTLVTVSS
VL: AYDMTQTPASVEVAVGGTVTIKCQASQNIYSNLAWYQQKPGQRPKLLIYRASSLASGVPSRFSGSGSGTEFTLTISGVQCDDAATYYCQQGFSSNNVDNTFGGGTEVVVK
notes: also called clone PEO20
B2: PEO19, Human/Rabbit chimeric anti-human CD39 monoclonal antibody (antibody, V domains shown)
VH: QSVEESGGRLVTPGTHLTLTCTVSGFSLSKSIISWVRQAPGKGLEYIGIIGSSGSTYYANWAKGRFTISKTSSTTVDLRMTSLTPEDTATYFCARGLLYSGNKSWGPGTLVTVSS
VL: AIDMTQTPSSVSAAVGGTVTINCQSSQSVLLNNQLSWFQQKPGQPPKLLIYDASTLESGVPSRFTGSGSGTQFTLTISDLECDDAATYYCLGGYSGNLYAFGGGTEVLVK
notes: also called clone PEO19
B3: PEO21, Human/Rabbit chimeric anti-human CD39 monoclonal antibody (antibody, V domains shown)
VH: QSVEESGGRLVTPGTPLTLTCTVSGFSLSSYAMSWVRQAPGKGLEYIGIISSSGSTYYASWAKGRFTISKTSTTVDLKISSPTTEDTATYFCARDRVIYSIGPYYFNLWGPGTLVTVSS
VL: AYDMTQTPSSVSATVGGTVTINCQASEIIYSNLAWYQQKPGQPPKLLIYGASTLASGVPSRFKGSGSGTEYTLTISDLQCDDAATYYCQQSFSSNNVGNIFGGGTEVVVK
notes: also called clone PEO21
B4: PEONP22, afucosylated counterpart of PEOWT22 (antibody, human IgG1, kappa, V domains shown)
VH: EVQLVESGGGVVRPGGSLRLSCAASGFTFSSYAMHWVRQAPGKGLEWVAVISYDVSNKYYADSVKGRFTISRDNSKNTLYLQMNSLRAEDTAVYYCARSYYYYYGMDVWGQGTTVTVSS
VL: DVVMTQSPSSLSASVGDRVTITCRASQSISRYLAWYQQKPGQAPRLLIYDASNRATGIPVRFSGSGSGTDFTLTISRLEPEDFAVYYCQQFGRSPRTFGQGTRLEIKR
modifications: afucosylated (Fc glycan); no genetic modifications
notes: Produced by CHO cells stably transfected with the parental PEOWT22 plasmid
B5: PEO22, optimized afucosylated counterpart of PEOWT22 (antibody, human IgG1, kappa, V domains shown)
VH: B4 VH
VL: B4 VL
modifications: afucosylated (Fc glycan); no genetic modifications
B6: PEOWT22, fully human anti-CD39 monoclonal antibody (parent, fully fucosylated) (antibody, human IgG1, kappa, V domains shown)
VH: B4 VH
VL: B4 VL
B7: PEO18, Human/Rabbit chimeric anti-human CD39 monoclonal antibody (antibody, V domains shown)
VH: QSVKEAGGRLVTPGGSLTLTCTVSGFSLSAYGISWVRQAPGKGLEWIGIIYSSGRTYYANWAKGRFTISKTSSTTVDLKMTSLTTEDTAAYFCARSRAGISSGDGFDSWGPGTLVTVSS
VL: ALVMTQTPSSVSAAVGGTVTINCQASQNIYSNLAWYQQKPGQRPQLLIYRASTLASGVPSRFKGSASGTEYTLTISGVQCDDAATYYCQQGFDSSNIDNTFGGGTEVVVT
notes: also called clone PEO18
B8: PEO24, Human/Rabbit chimeric anti-human CD39 monoclonal antibody (antibody, V domains shown)
VH: QSVEESGGRLVTPGTPLTLTCTVSGIDLSSNAMSWVRQAPGKGLEYIGIIRNNDITYYASWAKGRFTISKTSTTVDLIITSPTTEDTATYFCARGGGSYSIVFWNLWGPGTLVTVSS
VL: AYDMTQTPASVEVAVGGTVTINCQASERIYSNLAWYQQKPGQRPKLLIYYASTLASGVSSRFKGSGSGTQFTLTISGVQCADAATYYCQQGYSNNNVDNTFGGGTEVVVR
notes: also called clone PEO24
B9: PEO23, Human/Rabbit chimeric anti-human CD39 monoclonal antibody (antibody, V domains shown)
VH: QSVEESGGRLVTPGTPLTLTCTASGFSLSTHAINWVRQAPGKGLEWIGITYASGRTYYASWAKGRFTISKTSTTVDLKITSPTTEDTATYFCARNGADETFYYFDLWGPGTLVTVSS
VL: AYDMTQTPASVEAAVGGTVTIKCQASQNINTWLSWYQQKAGQPPKLLIYRASTLASGVSSRFKGSGSGTQFTLTISGVECADAATYYCQQYDASINIDNAFGGGTEVVVK
notes: also called clone PEO23

target: T1, human CD39 (ectonucleoside triphosphate …); test: stable immune complex assay, HCC1739BL cells, 2 µg/mL, anti-human IgG Fc AF488 MFI, 24 h 37°C vs 20 min 4°C
Description: Exemplary anti-human CD39 antibodies presenting high, low and no ADCC activity (2 μg/mL) were incubated with HCC1739BL cells for 24 hours at 37° C. in 5% CO₂ or 20 minutes at 4° C., followed by secondary antibody staining (anti-human IgG (Fc specific), Alexa Fluor® 488) for 30 minutes at 4° C. Cells were then washed and analyzed by flow cytometry. The difference in AF488 MFI between 20 minutes and 24 hours treatment represents the loss of human CD39 on cell membrane that was calculated as described in Materials and Methods. […] Hu/Ra: Human/Rabbit chimeric antibody; hIgG1: humanized rabbit antibody, IgG1 isotype.
HCC1739BL cells (5×10⁵ cells/mL) were incubated with anti-human CD39 monoclonal antibodies (2 μg/mL) or left untreated for 24 hours at 37° C. in 5% CO₂. The following day, untreated cells were exposed to the same panel of monoclonal antibodies (2 μg/mL) but for 20 minutes at 4° C. to obtain the basal level of CD39 expression. Cells were then washed twice with cell staining buffer and stained with anti-human IgG (Fc specific) Alexa Fluor® 488 (1:2000) for 30 minutes at 4° C., followed by two additional washes and fixation with paraformaldehyde (PFA, 2%) for 10 minutes at room temperature. Lastly, cells were washed twice and analyzed by a Cytek™ Aurora flow cytometer (Cytek Biosciences). Alexa Fluor® 488 (AF488) MFI was detected, and data was analyzed by FCS Express 7 software (De Novo Software). The percentage of human CD39 loss on cell membrane at 24 hours was calculated as: [(20 min MFI-24 h MFI/20 min MFI)]X100.

loss of human CD39 (immune complex) on cell membrane at 24 hours	Binder
< 30%	B1
< 30%	B2
< 30%	B3
< 30%	B4

target: T1, human CD39 (ectonucleoside triphosphate …); test: cell-based or functional assay

Binder	EC50 of NK cytotoxicity toward human eosinophils (in-vitro ADCC assay, human NK effector cells)
B5	0.294 ng/mL
B6	3.03 ng/mL

target: T1, human CD39 (ectonucleoside triphosphate …); test: flow cytometry epitope competition on HCC1739BL cells, competitor PE-Clone A1
Description: HCC1739BL cells were incubated with a panel of 18 anti-human CD39 monoclonal antibodies (Human/Rabbit chimeric clones; unconjugated, 2 μg/mL) at 4° C. for 30 minutes, followed by washing and staining with PE-conjugated mouse anti-human CD39 monoclonal antibody (Clone A1) for 30 minutes at 4° C. Cells were then analyzed by flow cytometry and PE median fluorescence intensity (MFI) was detected. Cells incubated with media instead of chimeric antibody were used as control.
Unconjugated anti-human CD39 monoclonal antibodies (Human/Rabbit chimeric clones; 2 μg/mL) were incubated with HCC1739BL cells (1×10⁵ cells) for 30 minutes at 4° C. Cells were then washed twice with cell staining buffer and stained with PE-conjugated mouse anti-human CD39 monoclonal antibody Clone A1 (0.25 μg/mL, Biolegend #328208) for 30 minutes at 4° C. Cells were then washed twice and analyzed by a Cytek™ Aurora flow cytometer. PE median fluorescence intensity (MFI) was detected, and data was analyzed by FCS […] Express 7 software (De Novo Software). Cells incubated with media instead of the chimeric antibody were used as control.

binding result	Binder
binds	B7
binds	B8
binds	B9
